Measurements taken from paper PMC11310373, “Development of a microbial dewaxing agent using three spore forming bacteria” (Bioresources and Bioprocessing, 2024).

Tests used:
purified protein = substrate: Cc1cc2nc3c(=O)[nH]c(=O)nc-3n(C[C@H](O)[C@H](O)[C@H](O)COP(=O)(O)O)c2cc1C; assay: purified protein; type: biochemical, Geobacillus thermodenitrificans; settings: FMN added to octadecane/NADPH mixture, FMNH2 consumption followed at A455, pH 8.0, 60 °C, varied: cofactor
[1] = substrate: CCCCCCCCCCCCCCCCCC; assay: NADPH consumption, Lineweaver-Burk; type: biochemical, Geobacillus thermodenitrificans; settings: 10 mM NADPH, 0.015% Triton X-100, 50 mM Tris-HCl pH 8.0, 60 °C
Text: NADPH consumption, Lineweaver-Burk on LadA (alkane monooxygenase)

Protein | Km (purified protein) | Km [1] | kcat [1] | kcat/Km [1]
LadA (alkane monooxygenase) (Geobacillus thermodenitrificans NG80-2) (protein) MTKKIHINAFEMNCVGHIAHGLWRHPENQRHRYTDLNYWTELAQLLEKGKFDALFLADVVGIYDVYRQSRDTAVREAVQIPVNDPLMLISAMAYVTKHLAFAVTFSTTYEHPYGHARRMSTLDHLTKGRIAWNVVTSHLPSADKNFGIKKILEHDERYDLADEYLEVCYKLWEGSWEDNAVIRDIENNIYTDPSKVHEINHSGKYFEVPGPHLCEPSPQRTPVIYQAGMSERGREFAAKHAECVFLGGKDVETLKFFVDDIRKRAKKYGRNPDHIKMFAGICVIVGKTHDEAMEKLNSFQKYWSLEGHLAHYGGGTGYDLSKYSSNDYIGSISVGEIINNMSKLDGKWFKLSVGTPKKVADEMQYLVEEAGIDGFNLVQYVSPGTFVDFIELVVPELQKRGLYRVDYEEGTYREKLFGKGNYRLPDDHIAARYRNISSNV | 3.3 ± 0.2 µM | 10360 ± 1600 µM | 0.0297 ± 0.0033 s⁻¹ | 2.83 M⁻¹ s⁻¹
LadA (alkane monooxygenase) (Geobacillus thermodenitrificans NG80-2; F10L) (protein) MTKKIHINALEMNCVGHIAHGLWRHPENQRHRYTDLNYWTELAQLLEKGKFDALFLADVVGIYDVYRQSRDTAVREAVQIPVNDPLMLISAMAYVTKHLAFAVTFSTTYEHPYGHARRMSTLDHLTKGRIAWNVVTSHLPSADKNFGIKKILEHDERYDLADEYLEVCYKLWEGSWEDNAVIRDIENNIYTDPSKVHEINHSGKYFEVPGPHLCEPSPQRTPVIYQAGMSERGREFAAKHAECVFLGGKDVETLKFFVDDIRKRAKKYGRNPDHIKMFAGICVIVGKTHDEAMEKLNSFQKYWSLEGHLAHYGGGTGYDLSKYSSNDYIGSISVGEIINNMSKLDGKWFKLSVGTPKKVADEMQYLVEEAGIDGFNLVQYVSPGTFVDFIELVVPELQKRGLYRVDYEEGTYREKLFGKGNYRLPDDHIAARYRNISSNV | 3.1 ± 0.3 µM | 6980 ± 500 µM | 0.036 ± 0.005 s⁻¹ | 5.17 M⁻¹ s⁻¹
LadA (alkane monooxygenase) (Geobacillus thermodenitrificans NG80-2; F10L/N133R) (protein) MTKKIHINALEMNCVGHIAHGLWRHPENQRHRYTDLNYWTELAQLLEKGKFDALFLADVVGIYDVYRQSRDTAVREAVQIPVNDPLMLISAMAYVTKHLAFAVTFSTTYEHPYGHARRMSTLDHLTKGRIAWRVVTSHLPSADKNFGIKKILEHDERYDLADEYLEVCYKLWEGSWEDNAVIRDIENNIYTDPSKVHEINHSGKYFEVPGPHLCEPSPQRTPVIYQAGMSERGREFAAKHAECVFLGGKDVETLKFFVDDIRKRAKKYGRNPDHIKMFAGICVIVGKTHDEAMEKLNSFQKYWSLEGHLAHYGGGTGYDLSKYSSNDYIGSISVGEIINNMSKLDGKWFKLSVGTPKKVADEMQYLVEEAGIDGFNLVQYVSPGTFVDFIELVVPELQKRGLYRVDYEEGTYREKLFGKGNYRLPDDHIAARYRNISSNV | 3.9 ± 0.3 µM | 2040 ± 200 µM | 0.0737 ± 0.01 s⁻¹ | 36.2 M⁻¹ s⁻¹
